From paper PMC8629192

Molecular target: SARS-CoV-2 spike protein (Wuhan-Hu-1), recombinant full-length spike with C-terminal histidine (SARS-CoV-2) (UniProt P0DTC2)
Assay: ELISA

LRRC15-Fc, sequence (Q8TF66 22-538): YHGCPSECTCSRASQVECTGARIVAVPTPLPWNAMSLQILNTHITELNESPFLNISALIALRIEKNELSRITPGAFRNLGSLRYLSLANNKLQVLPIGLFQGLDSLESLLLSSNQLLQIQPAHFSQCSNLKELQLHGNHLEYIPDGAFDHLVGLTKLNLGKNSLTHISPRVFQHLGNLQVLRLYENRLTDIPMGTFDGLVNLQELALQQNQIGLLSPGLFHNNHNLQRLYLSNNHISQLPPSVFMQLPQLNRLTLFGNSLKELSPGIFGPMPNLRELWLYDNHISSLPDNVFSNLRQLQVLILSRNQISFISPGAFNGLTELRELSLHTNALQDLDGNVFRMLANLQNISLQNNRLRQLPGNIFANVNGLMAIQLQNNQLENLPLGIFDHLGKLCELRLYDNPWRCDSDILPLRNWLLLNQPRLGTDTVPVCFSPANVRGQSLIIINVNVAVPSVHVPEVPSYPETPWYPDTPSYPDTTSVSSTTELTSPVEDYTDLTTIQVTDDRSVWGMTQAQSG

Substance “LRRC15-Fc (from UniProt Q8TF66) (Fc fusion)” has a Kd of 109 nM.
